Patent publication US20210371514A1 (UNIVERSITY OF FLORIDA RESEARCH FOUNDATION, published 2021)

T1: Corticotropin-releasing hormone (CRH)
T1 construct: 41-amino acid peptide derived from a 196-amino acid preprohormone (Genbank EAW86897.1); also called CRF; CRF peptide
T1 peptide: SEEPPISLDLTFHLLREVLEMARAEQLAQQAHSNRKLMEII


What was measured:
[1] = target: T1, Corticotropin-releasing hormone (CRH); assay: direct CRH ELISA with lysate of transfected HEK 293t cells
Method: ScFv constructs offer the advantage of being able to be delivered to the brain via AAV vectors. DNA constructs for ScFv's composed of the heavy and light variable regions of Antibody A and Antibody B, connected by a linker peptide, were generated. The amino acid sequences of the Antibody A and Antibody B scFvs are set forth in SEQ ID NOs: 22 and 23, respectively. DNA constructs were then transfected into Human Embryonic Kidney (HEK) 293t cells and incubated 48 hours. Cells were then lysed and analyzed for CRH binding via a direct CRH ELISA.

[2] = target: T1, Corticotropin-releasing hormone (CRH); assay: method not stated (FIG. 2, affinity of monoclonal antibodies to CRH)
[3] = target: T1, Corticotropin-releasing hormone (CRH); assay: Octet red BLI, CRF peptide against Antibody B at 300 nM to 0.412 nM; kdis(1/s), same value printed in all seven rows of the table [upper table, CRF peptide]
[4] = target: T1, Corticotropin-releasing hormone (CRH); assay: Octet red BLI, CRF peptide against Antibody B at 300 nM to 0.412 nM; same value printed in all seven rows of the table [upper table, CRF peptide]

Binder	binding result [1]	Kd [2] [nM]	koff [3] [s⁻¹]	Kd [4] [nM]	kon [4] [M⁻¹ s⁻¹]
anti-CRH antibody B (antibody, V domains shown, Mouse monoclonal antibody raised with Peptide B (CRH 1-21), purified (QED bio); It was detected with anti-mouse IgG-HRP, and mouse IgG1 served as isotype control in vivo) VH: EVQLQQSGPELVKPGVSMKISCKASGYSFTDSTMNWVKQSHGKNLEWIGLIHPDNGGTIYNQKFKGKATLTVHKSSSTAYMELLSLTSEDSAVYYCANGFAYWGQGTLVTVSA VL: DVVMTQTPLSLPVSLGDQASISCRSSQSLLHSNGNTYLHWYLQKPGQSPELLIYKVSNRFSGVPDRFSGSGSGTDFTLKISRVEAEDLGVYFCSQSTHVPLTFGAGTKLELK		20.9	< 1e-07	< 0.001	97500
anti-CRH antibody A (antibody, V domains shown, Mouse monoclonal antibody raised with Peptide A (CRH 1-15)) VH: EVKLVESGGGLVKPGGSLKLSCAASGFTFSSYAMSWVRQTPEKRLEWVASISIGGSTYYRDSVKGRCTISRDNAKNILYLQMRSLRSEDTAMYYCARRGMDYWGQGTSVTVSS VL: DIVITQDELSNPVTSGESVSISCRSSKSLLYKDGKTYLNWFLQRPGQSPQLLIYLMSTRASGVSDRFSGSGSGTDFTLEISRVKAEDVGVYYCQQLVEYPLTFGAGTKLELK		< 0.001			

Continued, values first:

binding result [1]	Kd [2] [nM]	koff [3] [s⁻¹]	Kd [4] [nM]	kon [4] [M⁻¹ s⁻¹]	Binder
binds					ScFv comprising the heavy and light variable regions of Antibody B (scFv, also called Antibody B scFv) scFv: DEVQLQQSGPELVKPGVSMKISCKASGYSFTDSTMNWVKQSHGKNLEWIGLIHPDNGGTIYNQKFKGKATLTVHKSSSTAYMELLSLTSEDSAVYYCANGFAYWGQGTLVTVSAAKTTPPSVYPLAPGSAAGGGGSGGGGSGGGGSDVVMTQTPLSLPVSLGDQASISCRSSQSLLHSNGNTYLHWYLQKPGQSPELLIYKVSNRFSGVPDRFSGSGSGTDFTLKISRVEAEDLGVYFCSQSTHVPLTFGAGTKLELKGSHHHHHHGSDYKDDDDK
binds					ScFv comprising the heavy and light variable regions of Antibody A (scFv, also called Antibody A scFv) scFv: DGVQCEVKLVESGGGLVKPGGSLKLSCAASGFTFSSYAMSWVRQTPEKRLEWVASISIGGSTYYRDSVKGRCTISRDNAKNILYLQMRSLRSEDTAMYYCARRGMDYWGQGTSVTVSSGGGGSGGGGSGGGGSDIVITQDELSNPVTSGESVSISCRSSKSLLYKDGKTYLNWFLQRPGQSPQLLIYLMSTRASGVSDRFSGSGSGTDFTLEISRVKAEDVGVYYCQQLVEYPLTFGAGTKLELKRASGHHHHHHGSDYKDDDDK
